The text below walks through data of patent KR20220054080A (dated 2022).

Test [1] has as its target SARS-CoV-2 spike protein on live SARS-CoV-2 virus (SARS-CoV-2, UniProt P0DTC2 14-1273). The test is described as follows: cell-based or functional assay.
For test [2], the target named is T1, SARS-CoV-2 RBD-mFc (SARS-CoV-2, UniProt P0DTC2 319-541).
T1 construct: range 319-541
The test is described as follows: Octet QKe BLI, 1:1 global fit.

For test [3], the target named is T1, SARS-CoV-2 RBD-mFc. The test is described as follows: flow cytometry competition: RBD-mFc on HEK293E/ACE2 cells. For orientation: In flow cytometry, cells or beads pass a laser one at a time.
The target of test [4] is T1, SARS-CoV-2 RBD-mFc. Nature of the test: competition ELISA: RBD-mFc on coated ACE2-His. (In general: An ELISA detects its analyte on a solid surface through an enzyme-linked reagent.)
Another test has as its target SARS-CoV-2 RBD-hFc (SARS-CoV-2, UniProt P0DTC2 319-541). The test is described as follows: cell-based or functional assay.
In test [5] the target is SARS-CoV 스파이크 [change] (#40150-V08B1, Sino Biological) (SARS-CoV, UniProt P59594 14-667). The test is described as follows: ELISA, coated S1-His.
For test [6], the target named is SARS-CoV RBD-His (#40150-V08B2, Sino Biological) (SARS-CoV, UniProt P59594 306-527). The test is described as follows: ELISA, coated His-tagged antigen.
For a further test, the target named is T2, SARS-CoV-2 스파이크 S1-mFc (SARS-CoV-2, UniProt P0DTC2 16-685).
T2 construct: range 16-685
The test is described as follows: competition ELISA: S1-mFc on coated ACE2-His.

Broadly, the Kd is the constant that tells how readily two partners part at equilibrium. For orientation: koff means the first-order rate constant of dissociation. The low end stands for slow dissociation, the high end for fast dissociation. Broadly, the kon is the second-order rate constant of association. Low values mean slower complex formation, high ones faster complex formation. A word on the IC50: it is the midpoint of a concentration-inhibition curve. Read a high IC50 as a need for much substance.

B1: SA4057 (antibody, V domains shown)
VH: EVQLVQSGGGLVQPGGSLRLSCAASVITVSSNYMSWVRQAPGKGLEWVSVIYPGGSTYYADSVKGRFTISRDKSKNTLYLQMNSLRAEDTAVYYCARDLDIVGGMDVWGQGTTVTVSS
VL: QLVLTQPPSVSGAPGQRVTISCTGSSSNIGAPHDVHWYQQLPGTAPRLLIYANNNRPSGVPDRFSGSKSGTSASLAITGLQDEDEADYYCQSYDSSLRAYVFGTGTKVTVL
Turning to B1, the “IC50, live SARS-CoV-2 미세중화분석, Vero 세포” value in test [1] was 37.5 nM. The molecule also came in with a Kd with SARS-CoV-2 RBD-mFc [2] of 0.0284 nM. Moreover, the dissociation rate constant (koff) with SARS-CoV-2 RBD-mFc [2] was found to be 4.96e-06 s⁻¹. In the test with SARS-CoV-2 RBD-mFc [2], this molecule registered a kon of 175000 M⁻¹ s⁻¹. Moreover, the IC50 was 4.13 nM in the test with SARS-CoV-2 RBD-mFc [3] and 4.81 nM with SARS-CoV-2 RBD-mFc [4]. Moreover, the “IC50, 세포내 유입(internalization) 억제, HEK293E/ACE2-GFP” value (“IC50 … HEK293E/ACE2-GFP” below) with SARS-CoV-2 RBD-hFc stood at 28.1 nM. The binding result in test [5] is “no binding (tested: 50 nM)”; in test [6] it was “no binding”.

B2: SA4043 (antibody, V domains shown)
VH: QVQLQESGGGLVQPGGSLRLSCAASVITVSSNYMSWVRQAPGKGLEWVSVIYPGGSTYYADSVKGRFTISRDKSKNTLYLQMNSLRAEDTAVYYCARDLDIVGGMDVWGQGTTVTVSS
VL: DIQMTQSPSTLSASVGDRVTITCRASQSISRWLAWYQQKPGQAPKLLIYAASTLQSGVPSRFSGSGSGTEFTLTISSLQPDDFATYYCQQYDSYPRTFGQGTKVDIK
On to B2, for which the “IC50, live SARS-CoV-2 미세중화분석, Vero 세포” value in test [1] is 12.5 nM. In addition, the IC50 was 1.69 nM in the test with SARS-CoV-2 RBD-mFc [3], 1.76 nM in the test with SARS-CoV-2 RBD-mFc [4] and 1.43 nM with SARS-CoV-2 스파이크 S1-mFc. The “IC50 … HEK293E/ACE2-GFP” value with SARS-CoV-2 RBD-hFc came out at 12.8 nM. Also, the binding result is reported as “no binding (tested: 50 nM)” in test [5] and “no binding” in test [6].

B3: SA4044 (antibody, V domains shown)
VH: EVQLVQSGGGLIQPGGSLRLSCAASGFTVSSNYMSWVRQAPGKGLEWVSVIYSGGSTYYADSVKGRFTISRDNSKNTLHLQMNSLRAEDTAVYYCARDLPQFDGFDYWGQGTLVTVSS
VL: QSALTQPPSLSVAPGRTARITCGGNNIGSKSVNWYQHMPGQAPVLVIYSDTDRPSGIPERVSGSKSGNTATLSISRVEAGDEADYYCQVWDSTTDHVVFGGGTKLTVL
B3: in test [1], the “IC50, live SARS-CoV-2 미세중화분석, Vero 세포” value turned out to be 80.5 nM. Moreover, the figures for the half-maximal inhibitory concentration (IC50) in the test with SARS-CoV-2 RBD-mFc [3], with SARS-CoV-2 RBD-mFc [4] and with SARS-CoV-2 스파이크 S1-mFc were 2.21 nM, 58.3 nM and 13.6 nM, respectively. Besides, in the test with SARS-CoV-2 RBD-hFc, the “IC50 … HEK293E/ACE2-GFP” value turned out to be 39.2 nM. Moreover, the binding result in test [5] is “no binding (tested: 50 nM)”; in test [6], “no binding”.

B4: SA4050 (antibody, V domains shown)
VH: QVQLVESGAEVKKPGASVKVSCKASGYTFTGYFIHWVRQAPGQGLEWMGWINPNSGGTNYAQKFQGRVTMTRDTSISTAYMELSRLRSDDTAVYYCARVPHLSGYYYEGVLGYFDYWGQGTLVTVSS
VL: QSALTQPASVSGSPGQSITISCTGTSIDIGSYNFVSWYQRHPGKAPRLLIYDVSDRPSGVSNRFSGSKSANTASLTISGLQAEDEADYYCSSYTSSSLWVFGGGTKLTVL
B4: the “IC50, live SARS-CoV-2 미세중화분석, Vero 세포” value in test [1] turned out to be 0.71 nM. For the same molecule, the affinity in the test with SARS-CoV-2 RBD-mFc [2], expressed as Kd, was 0.0929 nM. Moreover, the koff with SARS-CoV-2 RBD-mFc [2] stood at 4.67e-05 s⁻¹. The association rate constant (kon) with SARS-CoV-2 RBD-mFc [2] is 503000 M⁻¹ s⁻¹. The half-maximal inhibitory concentration (IC50) with SARS-CoV-2 RBD-mFc [3] was 2.93 nM; with SARS-CoV-2 RBD-mFc [4], 3.14 nM; with SARS-CoV-2 스파이크 S1-mFc, 1.45 nM. The “IC50 … HEK293E/ACE2-GFP” value with SARS-CoV-2 RBD-hFc turned out to be 36.9 nM. In addition, the binding result is “no binding (tested: 50 nM)” in test [5] and “no binding” in test [6].
